A word on the stoichiometry N: it is the number of molecules, sites or subunits per partner or assembly.

The series concerns the molecule itself. Put plainly: SAXS.

B1: Human Presequence Protease E107Q (hPreP E107Q) (enzyme, UniProt Q5JRX3 34-1037, looked up)
chain: CERALQYKLGDKIHGFTVNQVTSVPELFLTAVKLTHDDTGARYLHLAREDTNNLFSVQFRTTPMDSTGVPHILQHTVLCGSQKYPCRDPFFKMLNRSLSTFMNAFTASDYTLYPFSTQNPKDFQNLLSVYLDATFFPCLRELDFWQEGWRLEHENPSDPQTPLVFKGVVFNEMKGAFTDNERIFSQHLQNRLLPDHTYSVVSGGDPLCIPELTWEQLKQFHATHYHPSNARFFTYGNFPLEQHLKQIHEEALSKFQKIEPSTVVPAQTPWDKPREFQITCGPDSFATDPSKQTTISVSFLLPDITDTFEAFTLSLLSSLLTSGPNSPFYKALIESGLGTDFSPDVGYNGYTREAYFSVGLQGIAEKDIETVRSLIDRTIDEVVEKGFEDDRIEALLHKIEIQMKHQSTSFGLMLTSYIASCWNHDGDPVELLKLGNQLAKFRQCLQENPKFLQEKVKQYFKNNQHKLTLSMRPDDKYHEKQAQVEATKLKQKVEALSPGDRQQIYEKGLELRSQQSKPQDASCLPALKVSDIEPTIPVTELDVVLTAGDIPVQYCAQPTNGMVYFRAFSSLNTLPEELRPYVPLFCSVLTKLGCGLLDYREQAQQIELKTGGMSASPHVLPDDSHMDTYEQGVLFSSLCLDRNLPDMMQLWSEIFNNPCFEEEEHFKVLVKMTAQELANGIPDSGHLYASIRAGRTLTPAGDLQETFSGMDQVRLMKRIAEMTDIKPILRKLPRIKKHLLNGDNMRCSVNATPQQMPQTEKAVEDFLRSIGRSKKERRPVRPHTVEKPVPSSSGGDAHVPHGSQVIRKLVMEPTFKPWQMKTHFLMPFPVNYVGECIRTVPYTDPDHASLKILARLMTAKFLHTEIREKGGAYGGGAKLSHNGIFTLYSYRDPNTIETLQSFGKAVDWAKSGKFTQQDIDEAKLSVFSTVDAPVAPSDKGMDHFLYGLSDEMKQAHREQLFAVSHDKLLAVSDRYLGTGKSTHGLAILGPENPKIAKDPSWIIQ
As to B1, the “stoichiometry N” value came to 2.

These data come from paper PMC4128088 (Structure (London, England : 1993), 2014).
